Experimental data reported in patent publication US20150299322A1 (Dana-Farber, published 2015).

Key:
[1] = biological target: T1, recombinant mRGMa-HIS (R&D) (mouse, UniProt Q6PCX7 48-427, limits assumed); assay: ELISA, coated mRGMa-HIS
T1 construct: Bought from R&D; not shown: HIS tag
T1 sequence (looked up): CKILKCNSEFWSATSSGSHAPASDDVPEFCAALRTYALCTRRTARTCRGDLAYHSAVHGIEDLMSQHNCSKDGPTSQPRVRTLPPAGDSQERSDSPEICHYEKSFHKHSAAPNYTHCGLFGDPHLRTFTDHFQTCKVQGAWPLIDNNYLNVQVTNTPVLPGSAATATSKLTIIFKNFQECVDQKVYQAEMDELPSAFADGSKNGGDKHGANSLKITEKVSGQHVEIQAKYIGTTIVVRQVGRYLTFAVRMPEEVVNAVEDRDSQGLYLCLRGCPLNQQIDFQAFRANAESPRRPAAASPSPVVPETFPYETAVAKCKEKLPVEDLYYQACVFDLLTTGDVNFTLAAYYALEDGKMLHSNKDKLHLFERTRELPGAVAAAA
Experimental: (§1) To examine RGMa/RGMb/RGMc and PD-L2 interaction, 96-well ELISA plates were coated with 2 or 5 μg/ml of recombinant mRGMa-HIS, mRGMb-HIS, mRGMc-HIS, or hRGMb-HIS (R&D). Then, serial dilutions of mPD-L2-hIgG1/IgA, mPD-L2-mIgG2a/IgA, hPD-L2-mIgG2a or control-Ig fusion proteins were added and incubated for 1h at 37° C. Fab₂ goat anti-hIgG-HRP (Jackson ImmunoResearch Laboratories) or rat anti-mIgG2a-HRP (BD Biosciences) at 1:1000 or 1:10000 were used for detection.

[2] = biological target: T2, recombinant mRGMb-HIS (R&D) (mouse, UniProt Q7TQ33 49-415, limits assumed); assay: ELISA, coated BMP-2/4, mRGMb-HIS and PD-L2-Ig at 10 ug/ml, detection of the hIgG part
T2 construct: Bought from R&D; not shown: HIS tag
T2 sequence (looked up): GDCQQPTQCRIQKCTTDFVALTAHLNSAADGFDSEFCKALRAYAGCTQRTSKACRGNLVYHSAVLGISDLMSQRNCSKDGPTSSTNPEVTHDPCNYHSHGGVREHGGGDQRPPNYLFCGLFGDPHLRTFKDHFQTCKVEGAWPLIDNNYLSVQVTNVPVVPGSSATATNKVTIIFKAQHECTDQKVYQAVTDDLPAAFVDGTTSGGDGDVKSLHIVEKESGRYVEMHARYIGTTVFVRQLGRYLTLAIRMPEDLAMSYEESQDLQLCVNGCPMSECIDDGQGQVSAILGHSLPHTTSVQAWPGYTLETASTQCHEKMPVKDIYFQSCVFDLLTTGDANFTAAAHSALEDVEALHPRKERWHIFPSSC
Experimental: To determine if RGMb binds PD-L2 and BMP-2/4 simultaneously, 96-well ELISA plates were coated with BMP-2/4 as above. mPD-L2-hIgG1/IgA, mPD-L2-hIgG (R&D), mPD-L1-hIgG (R&D) or control-Ig fusion proteins at 10 μg/ml were preincubated with 10 μg/ml mRGMb-HIS (R&D) or buffer alone for 15 min. at room temperature (RT), then added to the plates and incubated for 1h at 37° C. Alternatively, 10 μg/ml mRGMb-HIS (R&D) or buffer alone was added first to the plates and incubated for 1h at 37° C. After wash, mPD-L2-Ig or control-Ig fusion proteins were added and incubated for 1h at 37° C. Fab₂ goat anti-hIgG-HRP (Jackson ImmunoResearch Laboratories) at 1:10000 was used for detection.
To test if RGMb can bind both PD-L2 and BMP at the same time, an ELISA was performed to analyze the binding capacity of PD-L2-Ig fusion protein to immobilized BMP-2/4 in the presence or absence of RGMb. PD-L2 could not directly bind to BMP-2/4, but in the presence of RGMb could form a complex with BMP when RGMb and PD-L2-Ig were added simultaneously (FIG. 4A-4B) or sequentially to BMP-2/4.

[3] = biological target: T3, mouse RGMb (mRGMb) expressed on transfected cells (mouse, UniProt Q7TQ33 49-415); assay: flow cytometry on mRGMb transiently transfected COS cells
T3 construct: whole, on cells; Also used for mRGMb in cell lysates (Western blot); also called DRAGON; 300-mRGMb cells
T3 sequence (looked up): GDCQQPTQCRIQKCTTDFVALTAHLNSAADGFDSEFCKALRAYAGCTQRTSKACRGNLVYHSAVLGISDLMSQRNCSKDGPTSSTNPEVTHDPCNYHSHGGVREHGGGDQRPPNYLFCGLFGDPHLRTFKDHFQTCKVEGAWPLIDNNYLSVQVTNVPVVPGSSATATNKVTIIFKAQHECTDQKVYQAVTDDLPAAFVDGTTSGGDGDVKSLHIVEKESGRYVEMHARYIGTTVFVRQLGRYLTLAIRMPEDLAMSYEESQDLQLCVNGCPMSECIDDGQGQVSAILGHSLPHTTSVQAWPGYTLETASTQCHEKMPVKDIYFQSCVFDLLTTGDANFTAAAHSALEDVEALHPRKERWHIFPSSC
Experimental: A panel of murine activated lymphocyte cDNA expression libraries were transiently transfected into COS cells using DEAE-Dextran or Lipofectamine as facilitator (Freeman et al. (1989) J. Immunol. 143:2714-2722). After 44 hours, COS cells were harvested and panned on mPD-L2-mIgG2a/IgA coated petri plates. Episomal DNA was recovered and electroporated into E. coli DH10B/P3. Spheroplast fusion was used to reintroduce the plasmids into COS cells for subsequent rounds of expression and panning. Before the second and third rounds, COS cells expressing PD-1 were removed by incubating with PD-1 mAb followed by depletion with goat anti-rat IgG magnetic beads. After the third round of panning, individual plasmids were transfected into COS cells and binding of PD-L2-Ig to RGMb was verified by flow cytometry on mRGMb transiently transfected COS cells. At least four independent mRGMb cDNA clones were isolated.

[4] = biological target: T4, recombinant mRGMc-HIS (R&D) (mouse, UniProt Q7TQ32 33-393, limits assumed); assay: ELISA, coated mRGMc-HIS
T4 construct: Bought from R&D; also called hemojuvelin; not shown: HIS tag
T4 sequence (looked up): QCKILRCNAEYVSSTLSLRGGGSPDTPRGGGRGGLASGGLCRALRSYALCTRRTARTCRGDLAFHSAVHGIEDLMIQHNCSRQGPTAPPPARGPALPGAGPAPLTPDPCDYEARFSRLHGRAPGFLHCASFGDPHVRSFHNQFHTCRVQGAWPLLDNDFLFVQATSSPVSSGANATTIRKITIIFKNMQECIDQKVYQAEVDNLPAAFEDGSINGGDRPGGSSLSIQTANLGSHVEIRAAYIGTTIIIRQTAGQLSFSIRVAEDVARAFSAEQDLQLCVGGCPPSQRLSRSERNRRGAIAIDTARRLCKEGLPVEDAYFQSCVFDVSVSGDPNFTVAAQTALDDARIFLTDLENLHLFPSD
Experimental: as §1

[5] = biological target: T5, recombinant hRGMb-HIS (R&D) (human, UniProt Q6NW40 46-413); assay: ELISA, coated hRGMb-HIS, PD-L2-Ig in solution
T5 construct: Bought from R&D; not shown: HIS tag
T5 sequence: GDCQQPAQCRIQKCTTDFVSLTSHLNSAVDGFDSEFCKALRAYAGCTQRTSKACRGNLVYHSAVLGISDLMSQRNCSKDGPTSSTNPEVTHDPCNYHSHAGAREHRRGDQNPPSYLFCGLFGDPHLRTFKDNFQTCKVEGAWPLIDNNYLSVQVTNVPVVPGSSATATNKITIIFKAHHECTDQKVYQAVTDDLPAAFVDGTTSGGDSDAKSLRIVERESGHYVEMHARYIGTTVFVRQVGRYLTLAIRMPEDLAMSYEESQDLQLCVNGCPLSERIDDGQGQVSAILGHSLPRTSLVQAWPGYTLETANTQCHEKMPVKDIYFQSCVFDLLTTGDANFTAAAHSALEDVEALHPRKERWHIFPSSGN
Experimental: as §1

B1: mPD-L2-Ig fusion protein (construct not told at the result) (Fc fusion, mouse, UniProt Q9WUL5 20-221, looked up)
chain: LFTVTAPKEVYTVDVGSSVSLECDFDRRECTELEGIRASLQKVENDTSLQSERATLLEEQLPLGKALFHIPSVQVRDSGQYRCLVICGAAWDYKYLTVKVKASYMRIDTRILEVPGTGEVQLTCQARGYPLAEVSWQNVSVPANTSHIRTPEGLYQVTSVLRLKPQPSRNFSCMFWNAHMKELTSAIIDPLSRMEPKVPRTW
notes: extracellular domain; not shown: Ig part: the methods name mPD-L2-hIgG1/IgA, mPD-L2-mIgG2a/IgA and mPD-L2-hIgG (R&D)
[1]
  binding result: no binding
[2]
  binding result: binds
[3]
  binding result: binds
[4]
  binding result: no binding
[5]
  binding result: binds
